According to patent publication US20160333098A1 (published 2016):

B1: humanized R1 (hR1) (antibody, V domains shown)
VH: QVQLQESGGGVVQPGRSLRLSCSASGFTFSDYYMYWVRQAPGKGLEWVAYITNYGGSTYYPDTVKGRFTISRDNAKNTLFLQMDSLRPEDTGVYFCARQSNYDYDGWFAYWGQGTPVTVSS
VL: DIQLTQSPSSLSASVGDRVTITCKASQEVGTAVAWYQQKPGKAPKLLIYWASTRHTGVPSRFSGSGSGTDFTFTISSLQPEDIATYFCQQYSNYPLTFGQGTKVEIKR
notes: also called hR1 IgG; production clone 711.3C11
B2: chimeric R1 (cR1) (antibody, V domains shown)
VH: EVKLVESGGGLVQPGGSLKLSCATSGFTFSDYYMYWVRQTPEKRLEWVAYITNYGGSTYYPDTVKGRFTISRDNAKNTLYLQMSRLRSEDTAMYFCARQSNYDYDGWFAYWGQGTTVTVSS
VL: DIVMTQSHKFMSTSVGDRVSITCKASQEVGTAVAWYQQKPGQSPKLLIYWASTRHTGVPDRFTGSGSGTDFTLTISNVQSEDLADYFCQQYSNYPLTFGAGAKLELKR
notes: R1 variable domains on human constant regions of the pdHL2 vector (cR1pdHL2); also called mouse-human chimeric mAb of R1; clones 709.2D2 and 710.2G2
B3: mouse anti-IGF-1R antibody R1 (ML04R1) (antibody, V domains shown)
VH: B2 VH
VL: B2 VL
notes: Used unlabeled or tagged with a fluorescent probe (PE); also called murine R1; clone C-11

Assays:
[1] = target: cell lines MCF-7, DU-145 and ME-180 carrying both IGF-1R and EGP-1; assay: flow cytometry (FACScan), MCF-7 cells; control
[2] = target: EGP-1 expressed on cancer cell lines (MCF-7, DU-145, ME-180) (UniProt P09758); assay: flow cytometry (FACScan), ME-180 cells
[3] = target: EGP-1 expressed on cancer cell lines (MCF-7, DU-145, ME-180) (UniProt P09758); assay: flow cytometry (FACScan), DU145 cells
[4] = target: EGP-1 expressed on cancer cell lines (MCF-7, DU-145, ME-180) (UniProt P09758); assay: flow cytometry (FACScan), MCF-7 cells
[5] = target: cell lines MCF-7, DU-145 and ME-180 carrying both IGF-1R and EGP-1; assay: flow cytometry (FACScan), MCF-7 cells; structural control
[6] = target: recombinant human IGF-1R (rhIGF-1R), immobilized on plates or polystyrene beads (human) (UniProt P08069); assay: labeled antibody on rhIGF-1R-coated beads; competitor: unlabeled R1
[7] = target: recombinant human IGF-1R (rhIGF-1R), immobilized on plates or polystyrene beads (human) (UniProt P08069); assay: labeled antibody on rhIGF-1R-coated beads; competitor: unlabeled hR1
[8] = target: recombinant human IGF-1R (rhIGF-1R), immobilized on plates or polystyrene beads (human) (UniProt P08069); assay: labeled antibody on rhIGF-1R-coated beads; competitor: unlabeled 24-57
[9] = target: recombinant human IGF-1R (rhIGF-1R), immobilized on plates or polystyrene beads (human) (UniProt P08069); assay: labeled antibody on rhIGF-1R-coated beads; competitor: unlabeled MAB391
[10] = target: recombinant human IGF-1R (rhIGF-1R), immobilized on plates or polystyrene beads (human) (UniProt P08069); assay: labeled antibody on rhIGF-1R-coated beads; competitor: unlabeled 17-69
[11] = target: recombinant human IGF-1R (rhIGF-1R), immobilized on plates or polystyrene beads (human) (UniProt P08069); assay: labeled antibody on rhIGF-1R-coated beads; competitor: unlabeled 3B7
[12] = target: recombinant human IGF-1R (rhIGF-1R), immobilized on plates or polystyrene beads (human) (UniProt P08069); assay: labeled antibody on rhIGF-1R-coated beads; competitor: unlabeled 24-60
[13] = target: recombinant human IGF-1R (rhIGF-1R), immobilized on plates or polystyrene beads (human) (UniProt P08069); assay: labeled antibody on rhIGF-1R-coated beads; competitor: unlabeled 1H7
[14] = target: recombinant human IGF-1R (rhIGF-1R), immobilized on plates or polystyrene beads (human) (UniProt P08069); assay: labeled antibody on rhIGF-1R-coated beads; competitor: unlabeled 2C8
[15] = target: recombinant human IGF-1R (rhIGF-1R), immobilized on plates or polystyrene beads (human) (UniProt P08069); assay: labeled antibody on rhIGF-1R-coated beads; competitor: unlabeled αIR-3
[16] = target: recombinant human IGF-1R (rhIGF-1R), immobilized on plates or polystyrene beads (human) (UniProt P08069); assay: labeled antibody on rhIGF-1R-coated beads; competitor: unlabeled 24-31
[17] = target: recombinant human IGF-1R (rhIGF-1R), immobilized on plates or polystyrene beads (human) (UniProt P08069); assay: labeled antibody on rhIGF-1R-coated beads; competitor: unlabeled cR1
[18] = target: recombinant human IGF-1R (rhIGF-1R), immobilized on plates or polystyrene beads (human) (UniProt P08069); assay: labeled antibody on rhIGF-1R-coated beads; competitor: unlabeled 1-2
[19] = target: IGF-1R expressed on cancer cell lines (MCF-7L, MCF-7, CaPan1, DU-145, ME-180, Hep G2, HT-29, LNCaP) (human) (UniProt P08069); assay: 125I-IGF-1 binding to MCF-7L cells in the presence of 10 ng/mL antibody
[20] = target: IGF-1R expressed on cancer cell lines (MCF-7L, MCF-7, CaPan1, DU-145, ME-180, Hep G2, HT-29, LNCaP) (human) (UniProt P08069); assay: 125I-IGF-1 binding to MCF-7L cells, 0 ng/mL antibody (reference)
[21] = target: IGF-1R expressed on cancer cell lines (MCF-7L, MCF-7, CaPan1, DU-145, ME-180, Hep G2, HT-29, LNCaP) (human) (UniProt P08069); assay: 125I-IGF-1 binding to MCF-7L cells in the presence of 100 ng/mL antibody
[22] = target: IGF-1R expressed on cancer cell lines (MCF-7L, MCF-7, CaPan1, DU-145, ME-180, Hep G2, HT-29, LNCaP) (human) (UniProt P08069); assay: 125I-IGF-1 binding to MCF-7L cells in the presence of 1000 ng/mL antibody
[23] = target: T1, recombinant human IGF-1R (rhIGF-1R), immobilized on plates or polystyrene beads (human, UniProt P08069 31-935); assay: labeled antibody on rhIGF-1R-coated beads; competitor: unlabeled 1-2
T1 construct: also called immobilized recombinant human IGF-1R; IGF-1R-coated beads

[24] = target: T1, recombinant human IGF-1R (rhIGF-1R), …; assay: labeled antibody on rhIGF-1R-coated beads; competitor: unlabeled 3B7
[25] = target: T1, recombinant human IGF-1R (rhIGF-1R), …; assay: labeled antibody on rhIGF-1R-coated beads; competitor: unlabeled 1H7
[26] = target: T1, recombinant human IGF-1R (rhIGF-1R), …; assay: labeled antibody on rhIGF-1R-coated beads; competitor: unlabeled cR1
[27] = target: T1, recombinant human IGF-1R (rhIGF-1R), …; assay: labeled antibody on rhIGF-1R-coated beads; competitor: unlabeled MAB391
[28] = target: T1, recombinant human IGF-1R (rhIGF-1R), …; assay: labeled antibody on rhIGF-1R-coated beads; competitor: unlabeled 24-57
[29] = target: T1, recombinant human IGF-1R (rhIGF-1R), …; assay: labeled antibody on rhIGF-1R-coated beads; competitor: unlabeled hR1
[30] = target: T1, recombinant human IGF-1R (rhIGF-1R), …; assay: labeled antibody on rhIGF-1R-coated beads; competitor: unlabeled 24-31
[31] = target: T1, recombinant human IGF-1R (rhIGF-1R), …; assay: labeled antibody on rhIGF-1R-coated beads; competitor: unlabeled 17-69
[32] = target: T1, recombinant human IGF-1R (rhIGF-1R), …; assay: labeled antibody on rhIGF-1R-coated beads; competitor: unlabeled 2C8
[33] = target: T1, recombinant human IGF-1R (rhIGF-1R), …; assay: labeled antibody on rhIGF-1R-coated beads; competitor: unlabeled R1
[34] = target: T1, recombinant human IGF-1R (rhIGF-1R), …; assay: labeled antibody on rhIGF-1R-coated beads; competitor: unlabeled αIR-3
[35] = target: T1, recombinant human IGF-1R (rhIGF-1R), …; assay: labeled antibody on rhIGF-1R-coated beads; competitor: unlabeled 24-60
[36] = target: T2, recombinant human insulin receptor (rhIR), immobilized (human, UniProt P06213-2 28-944, limits assumed); assay: ELISA on immobilized receptor
[37] = target: T1, recombinant human IGF-1R (rhIGF-1R), …; assay: ELISA on immobilized rhIGF-1R (cR1 of clones 709.2D2 and 710.2G2, the same value for each)
[38] = target: T2, recombinant human insulin receptor …; assay: hybridoma screening; method not described

Chain of EGP-1 expressed on cancer cell lines (MCF-7, DU-145, ME-180) (P09758 27-323): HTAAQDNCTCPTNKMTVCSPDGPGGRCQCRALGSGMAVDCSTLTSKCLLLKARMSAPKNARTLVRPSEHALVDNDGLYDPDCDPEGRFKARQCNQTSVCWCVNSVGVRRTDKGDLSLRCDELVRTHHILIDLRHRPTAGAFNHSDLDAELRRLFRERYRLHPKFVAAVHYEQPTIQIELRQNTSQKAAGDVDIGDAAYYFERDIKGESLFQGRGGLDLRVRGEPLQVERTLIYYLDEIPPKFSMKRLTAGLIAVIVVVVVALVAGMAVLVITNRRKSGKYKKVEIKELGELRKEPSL
T2 sequence (P06213 other isoform, or with tags, fused parts or gaps limits assumed): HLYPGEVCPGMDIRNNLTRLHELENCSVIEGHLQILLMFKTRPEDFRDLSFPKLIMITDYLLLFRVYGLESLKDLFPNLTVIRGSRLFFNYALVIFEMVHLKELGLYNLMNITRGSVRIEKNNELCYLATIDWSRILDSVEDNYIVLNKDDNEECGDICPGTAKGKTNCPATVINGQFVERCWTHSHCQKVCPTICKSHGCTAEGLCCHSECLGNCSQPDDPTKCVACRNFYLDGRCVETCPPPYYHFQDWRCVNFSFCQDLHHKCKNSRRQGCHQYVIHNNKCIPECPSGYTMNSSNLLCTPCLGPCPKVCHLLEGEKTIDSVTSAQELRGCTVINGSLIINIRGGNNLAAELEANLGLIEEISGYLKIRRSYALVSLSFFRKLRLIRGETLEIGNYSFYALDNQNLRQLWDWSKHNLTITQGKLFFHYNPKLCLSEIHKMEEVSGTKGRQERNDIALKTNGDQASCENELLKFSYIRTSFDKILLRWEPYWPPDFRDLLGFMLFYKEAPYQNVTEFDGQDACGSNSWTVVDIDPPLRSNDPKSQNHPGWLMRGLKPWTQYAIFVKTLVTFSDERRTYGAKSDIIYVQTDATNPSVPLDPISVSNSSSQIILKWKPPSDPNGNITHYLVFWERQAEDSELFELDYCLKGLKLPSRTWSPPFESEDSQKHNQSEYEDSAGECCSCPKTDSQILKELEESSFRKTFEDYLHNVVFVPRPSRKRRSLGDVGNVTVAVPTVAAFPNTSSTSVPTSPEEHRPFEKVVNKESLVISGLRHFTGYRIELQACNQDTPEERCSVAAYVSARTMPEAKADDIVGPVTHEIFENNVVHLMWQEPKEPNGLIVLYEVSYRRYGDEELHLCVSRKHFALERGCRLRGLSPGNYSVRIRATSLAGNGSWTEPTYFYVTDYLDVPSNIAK

% binding [6] | % binding [9] | % binding [23] | % binding [24] | % binding [25] | % binding [26] | % binding [27] | % binding [28] | % binding [29] | % binding [30] | % binding [31] | % binding [32] | % binding [33] | % binding [34] | % binding [35] | other results | Molecule
– | – | – | – | – | – | – | – | – | – | – | – | – | – | – | % Positive [1]: 2.34%; MFI [1]: 1.84 | human IgG (control in Table 5) (antibody)
– | – | – | – | – | – | – | – | – | – | – | – | – | – | – | % Positive [2]: 100%; MFI [2]: 35.5; % Positive [3]: 82.8%; MFI [3]: 10.6; % Positive [4]: 99.2%; MFI [4]: 21.4 | hRS7, humanized anti-EGP-1 antibody
– | – | – | – | – | – | – | – | – | – | – | – | – | – | – | % Positive [5]: 3.1%; MFI [5]: 2.11 | DNL construct 22-20 (hLL2 IgG-AD2 with hA20 Fab-DDD2) (bispecific antibody)
86% | 0% | – | – | – | – | – | – | – | – | – | – | – | – | – | % binding [7]: 107%; % binding [8]: 87%; % binding [10]: 89%; % binding [11]: 76%; % binding [12]: 0%; % binding [13]: 115%; % binding [14]: 97%; % binding [15]: 0%; % binding [16]: 52%; % binding [17]: 97%; % binding [18]: 95% | anti-IGF-1R antibody αIR-3
40% | 0% | – | – | – | – | – | – | – | – | – | – | – | – | – | % binding of 125I-IGF-1 [19]: 95%; % binding of 125I-IGF-1 [20]: 100%; % binding of 125I-IGF-1 [21]: 54%; % binding of 125I-IGF-1 [22]: 38% | MAB391, commercially available mouse anti-IGF-1R monoclonal antibody
– | – | – | – | – | – | – | – | – | – | – | – | – | – | – | % Positive [2]: 100%; MFI [2]: 59.6; % Positive [3]: 93.7%; MFI [3]: 17; % Positive [4]: 99.9%; MFI [4]: 35.7 | Hex-hRS7, monospecific hexavalent DNL construct (hRS7 IgG-AD2 with hRS7 Fab-DDD2) (antibody)
0% | 0% | – | – | – | – | – | – | – | – | – | – | – | – | – | % binding [7]: 0%; % binding [8]: 88%; % binding [10]: 82%; % binding [11]: 79%; % binding [12]: 0%; % binding [13]: 100%; % binding [14]: 88%; % binding [15]: 21%; % binding [16]: 18%; % binding [17]: 0%; % binding [18]: 100% | anti-IGF-1R antibody 24-60
– | – | 100% | 100% | 131% | 0% | 121% | 100% | 0% | 100% | 100% | 100% | 0% | 136% | 71% | – | B1
– | – | 100% | 106% | 125% | 0% | 108% | 100% | 0% | 100% | 100% | 100% | 0% | 128% | 40% | binding result [36]: no binding; Kd [37]: ~100 pM | B2
– | – | 100% | 117% | 150% | 0% | 100% | 100% | 0% | 100% | 100% | 100% | 0% | 143% | 43% | binding result [38]: no binding | B3
